The test system of the data set is MSA-R2c (p57, major soluble antigen, IPT-domain construct) (Renibacterium salmoninarum). The experiment in a line: plate binding assay with immobilized protein, bound aptamer quantified by qPCR. To be noted: 20 mM Tris-HCl pH 7.4, room temperature, 1 h; wells coated with 50 uL of 2.5 uM protein, 1% BSA block; aptamer 0.0205-41 nM, heated at 95 C for 5 min; no added ….

For “ATGATACGGCGACCACCTAACCATTTTCACTGTTTGTTTAATATATATAGTTTTATGGTATAGCGTCGTGTAGGGAAAGA [Aptamer-4]”, the Kd was 3 nM.
